Data set [1] concerns phospho-ErbB3 (pErbB3). Type of data set: cell-based. Conditions: up to 24 hours incubation. The method, then:
(§1) Cell lysates are probed for phospho-ErbB3 (pErbB3), and phospho-AKT (pAKT) by ELISA as described previously (Schoeberl et al, 2009) Inhibitor IC50 values are calculated by fitting dose-response data to a 4-parameter sigmoidal curve (GraphPad Prism®, GraphPad Software, Inc., La Jolla, Calif.).
Model-generated dose-response curves overlay the experimental data (FIG. 7a). […] Untreated and heregulin-stimulated cells were probed for pErbB3 and pAKT and the IC50 was calculated (FIG. 7b).
(§2) CRL-1504®), cells were incubated with serial dilutions of either inhibitor for 15 minutes, 1 hour, 4 hours, and 24 hours followed by stimulation with 5 nM heregulin for 10 min Amounts of pAKT and pErbB3 were measured by ELISA essentially as described.

The test system of data set [2] is phospho-ErbB3 (pErbB3). The data set is described as follows: Cell signaling assay, pErbB3 ELISA, ZR75-30. Particulars: ZR75-30 cells, stimulation with 5 nM heregulin for 10 min; read-out: IC50, reduction of pErbB3 levels. The class given is cell-based. On the procedure:
as §1, §2

For data set [3], the system named is phospho-AKT (pAKT). As to the kind of experiment: Cell signaling assay, pAKT ELISA, ZR75-30. Type of data set: cell-based. Particulars: ZR75-30 cells, stimulation with 5 nM heregulin for 10 min; read-out: IC50, reduction of pAKT levels. The method, then:
as §1, §2
(An ELISA detects its analyte on a solid surface through an enzyme-linked reagent.)

The subject of data set [4] is NCI-N87 cells. As to the kind of experiment: T-DM1 and heregulin dose matrix cell viability, NCI-N87. Type of data set: cell-based. Particulars: for cell viability: T-DM1 0 μg/ml, with MM-111 1 μM, 72 h. On the procedure: Cells were allowed to adhere 16-20 hours at +37° C., 5% CO2. Cells were stimulated for 4 hours by adding 5 μl of culture media containing recombinant human NRG-1-β1 EGF domain (HRG1) bringing the final HRG1 stimulation concentration to 0, 0.313, 0.625, 1.25, 2.5, 5 or 10 nM. […] All conditions were assayed in biological quadruplicates. Cells were incubated for 72 h at +37° C., 5% CO2. Cell viability was determined by CellTiter-Glo® Luminescent Cell Viability Assay by adding 20 μl of reconstituted CellTiter-Glo reagent per well, incubating plated for 10 minutes at RT in an orbital shaker and reading the luminescence signal using Biotek™ Synergy H1 Hybrid Reader.

The test system of data set [5] is ErbB2 and ErbB3. As to the kind of experiment: Affinity of MM-111 antigen-binding sites.

As a reminder, the IC50 is the concentration needed to halve the response being measured. Regarding MM-111, the “inhibition of heregulin-induced ErbB3 activation relative to lapatinib” value in data set [1] was “superior to lapatinib by greater than an order of magnitude”. In addition, the IC50 in data set [2] is 5 nM; in data set [3], 4 nM. Moreover, the cell viability in data set [4] (HRG 0 nM) is on record as 100 % of control; in data set [4] (HRG 0.313 nM) it was 101.4158 % of control; in data set [4] (HRG 0.625 nM), 105.024 % of control; in data set [4] (HRG 1.25 nM), 110.2781 % of control; in data set [4] (HRG 2.5 nM), 118.0867 % of control; in data set [4] (HRG 5 nM), 126.5145 % of control. In data set [4] (HRG 10 nM), the cell viability is reported as 146.1417 % of control. The “affinity of ErbB2 antigen-binding site relative to ErbB3 antigen-binding site” value in data set [5] is on record as “about 30 times”.
As to “ado-trastuzumab emtansine [T-DM1, reference compound]”, in data set [4] (HRG 0.313-10 nM), the “activity of T-DM1 with exogenous HRG” value is listed as “exogenous HRG decreases the activity of T-DM1”.
